Laboratory results as given in the supplement of paper PMC9112550, “Optimization of the antimicrobial peptide Bac7 by deep mutational scanning” (BMC Biology, 2022).

These sequences were tested on Escherichia coli TOP10 (assay: shrunken log2 fold change of peptide-encoding DNA abundance (4.5 h post-induction vs induction); higher = less antimicrobial activity (less host growth inhibition)). Conditions: time post-induction: 4.5 h; library: site-saturation at positions 5, 18, 19, 20.
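Note: peptides expressed intracellularly from a pBAD plasmid library in pooled LB shake-flask culture, induced with 0.3% L-arabinose, DNA abundance read by NGS, three biological replicates, DESeq2 with apeglm shrinkage.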

Row | Sequence | shrunken log2 fold change
1 | RRIRNRPPRLPRPRPRPCHVPRP | 0.0112
2 | RRIRFRPPRLPRPRPRPELQPRP | 0.348
3 | RRIRMRPPRLPRPRPRPISLPRP | 0.0356
4 | RRIRWRPPRLPRPRPRPLLHPRP | 0.493
5 | RRIRERPPRLPRPRPRPYVCPRP | -1.6
6 | RRIRKRPPRLPRPRPRPTFLPRP | 0.228
7 | RRIRPRPPRLPRPRPRPVGCPRP | 1.56
8 | RRIRVRPPRLPRPRPRPCLWPRP | 0.0452
9 | RRIRGRPPRLPRPRPRPPRMPRP | 0.608
10 | RRIRHRPPRLPRPRPRPFELPRP | -0.0176
11 | RRIRVRPPRLPRPRPRPYLPPRP | -0.453
12 | RRIRMRPPRLPRPRPRPHLIPRP | 0.133
13 | RRIRWRPPRLPRPRPRPEMKPRP | 0.271
14 | RRIRCRPPRLPRPRPRPSPQPRP | 0.445
15 | RRIRHRPPRLPRPRPRPFKMPRP | -0.274
16 | RRIRVRPPRLPRPRPRPGADPRP | 0.163
17 | RRIRWRPPRLPRPRPRPEHPPRP | 0.16
18 | RRIRRRPPRLPRPRPRPCNKPRP | -0.137
19 | RRIRFRPPRLPRPRPRPQYRPRP | -0.171
20 | RRIRARPPRLPRPRPRPEGKPRP | 0.702
21 | RRIRFRPPRLPRPRPRPAMMPRP | 0.0488
22 | RRIRGRPPRLPRPRPRPASMPRP | 0.548
23 | RRIRFRPPRLPRPRPRPLTTPRP | 0.0259
24 | RRIRIRPPRLPRPRPRPLGSPRP | -0.41
25 | RRIRIRPPRLPRPRPRPWDAPRP | -0.00869

Row | Sequence | shrunken log2 fold change
26 | RRIRTRPPRLPRPRPRPTTLPRP | -0.316
27 | RRIRVRPPRLPRPRPRPSALPRP | -0.0271
28 | RRIRMRPPRLPRPRPRPCAPPRP | 0.478
29 | RRIRDRPPRLPRPRPRPDDEPRP | 0.425
30 | RRIRIRPPRLPRPRPRPVNSPRP | -0.319
31 | RRIRDRPPRLPRPRPRPLTRPRP | -0.00589
32 | RRIRYRPPRLPRPRPRPCVQPRP | -0.236
33 | RRIRARPPRLPRPRPRPHRCPRP | 0.0993
34 | RRIRDRPPRLPRPRPRPCELPRP | 0.0111
35 | RRIRRRPPRLPRPRPRPPQKPRP | 1.31
36 | RRIRARPPRLPRPRPRPPLEPRP | 0.583
37 | RRIRTRPPRLPRPRPRPFIDPRP | -1.15
38 | RRIRFRPPRLPRPRPRPMARPRP | -0.0235
39 | RRIRFRPPRLPRPRPRPQGMPRP | -0.0535
40 | RRIRFRPPRLPRPRPRPMLWPRP | 0.165
41 | RRIRDRPPRLPRPRPRPHQEPRP | -0.281
42 | RRIRERPPRLPRPRPRPLLCPRP | -0.183
43 | RRIRYRPPRLPRPRPRPKQQPRP | -0.0891
44 | RRIRDRPPRLPRPRPRPRAQPRP | 0.457
45 | RRIRDRPPRLPRPRPRPQSEPRP | 0.0514
46 | RRIRNRPPRLPRPRPRPKSEPRP | -0.414
47 | RRIRPRPPRLPRPRPRPGCQPRP | -0.0622
48 | RRIRCRPPRLPRPRPRPQNSPRP | -0.194
49 | RRIRIRPPRLPRPRPRPFVIPRP | 0.0556
50 | RRIRKRPPRLPRPRPRPCYFPRP | -0.00436

Row | Sequence | shrunken log2 fold change
51 | RRIRIRPPRLPRPRPRPPQVPRP | 0.328
52 | RRIRHRPPRLPRPRPRPKHVPRP | -0.15
53 | RRIRCRPPRLPRPRPRPLGYPRP | 0.0405
54 | RRIRMRPPRLPRPRPRPAMWPRP | 0.511
55 | RRIRVRPPRLPRPRPRPYMRPRP | 0.162
56 | RRIRFRPPRLPRPRPRPAGFPRP | 0.0553
57 | RRIRSRPPRLPRPRPRPPQAPRP | 0.768
58 | RRIRDRPPRLPRPRPRPVQWPRP | 0.0426
59 | RRIRVRPPRLPRPRPRPASEPRP | 0.0395
60 | RRIRYRPPRLPRPRPRPMTWPRP | -0.31
61 | RRIRERPPRLPRPRPRPPSMPRP | -0.242
62 | RRIRGRPPRLPRPRPRPYIEPRP | -0.114
63 | RRIRARPPRLPRPRPRPTPSPRP | 0.791
64 | RRIRIRPPRLPRPRPRPTHSPRP | -0.469
65 | RRIRLRPPRLPRPRPRPRWSPRP | 0.129
66 | RRIRCRPPRLPRPRPRPFEYPRP | -0.548
67 | RRIRWRPPRLPRPRPRPYPEPRP | -0.224
68 | RRIRDRPPRLPRPRPRPDVPPRP | 0.221
69 | RRIRTRPPRLPRPRPRPCVYPRP | -0.243
70 | RRIRYRPPRLPRPRPRPFSKPRP | -0.107
71 | RRIRVRPPRLPRPRPRPKPLPRP | 0.196
72 | RRIRWRPPRLPRPRPRPHDHPRP | -0.152
73 | RRIRFRPPRLPRPRPRPPINPRP | -0.406
74 | RRIRTRPPRLPRPRPRPGKMPRP | 0.181
75 | RRIRPRPPRLPRPRPRPTVDPRP | 0.0336

Row | Sequence | shrunken log2 fold change
76 | RRIRSRPPRLPRPRPRPHFYPRP | 0.166
77 | RRIRCRPPRLPRPRPRPYKIPRP | -0.785
78 | RRIRKRPPRLPRPRPRPGLFPRP | 0.556
79 | RRIRFRPPRLPRPRPRPVDVPRP | -0.44
80 | RRIRERPPRLPRPRPRPEKLPRP | -0.296
81 | RRIRARPPRLPRPRPRPDGYPRP | 0.647
82 | RRIRPRPPRLPRPRPRPDYGPRP | 0.014
83 | RRIRMRPPRLPRPRPRPMNGPRP | 0.0715
84 | RRIRDRPPRLPRPRPRPLHMPRP | -0.0438
85 | RRIRIRPPRLPRPRPRPPLLPRP | 0.444
86 | RRIRFRPPRLPRPRPRPYDGPRP | -0.18
87 | RRIRNRPPRLPRPRPRPQIKPRP | -0.479
88 | RRIRPRPPRLPRPRPRPQIGPRP | 0.128
89 | RRIRLRPPRLPRPRPRPWGEPRP | -0.0317
90 | RRIRSRPPRLPRPRPRPLCLPRP | 0.259
91 | RRIRLRPPRLPRPRPRPLYYPRP | -0.274
92 | RRIRDRPPRLPRPRPRPDWQPRP | 0.252
93 | RRIRCRPPRLPRPRPRPMWAPRP | 0.378
94 | RRIRCRPPRLPRPRPRPAFKPRP | 0.132
95 | RRIRRRPPRLPRPRPRPIENPRP | -0.0103
96 | RRIRYRPPRLPRPRPRPCFDPRP | -0.808
97 | RRIRARPPRLPRPRPRPWGSPRP | 0.115
98 | RRIRLRPPRLPRPRPRPGLYPRP | -0.476
99 | RRIRRRPPRLPRPRPRPCTCPRP | -0.111
100 | RRIRWRPPRLPRPRPRPCHKPRP | -0.0267

Row | Sequence | shrunken log2 fold change
101 | RRIRNRPPRLPRPRPRPHANPRP | 0.0684
102 | RRIRQRPPRLPRPRPRPFRVPRP | -0.153
103 | RRIRLRPPRLPRPRPRPKGSPRP | -0.0276
104 | RRIRDRPPRLPRPRPRPPMPPRP | 0.203
105 | RRIRIRPPRLPRPRPRPNIFPRP | -0.319
106 | RRIRNRPPRLPRPRPRPICHPRP | -0.1
107 | RRIRQRPPRLPRPRPRPDTNPRP | -0.413
108 | RRIRRRPPRLPRPRPRPSASPRP | 0.101
109 | RRIRGRPPRLPRPRPRPIKCPRP | -0.0104
110 | RRIRDRPPRLPRPRPRPENCPRP | -0.0102
111 | RRIRCRPPRLPRPRPRPFIFPRP | -0.425
112 | RRIRSRPPRLPRPRPRPNCLPRP | -0.28
113 | RRIRDRPPRLPRPRPRPYQIPRP | -0.238
114 | RRIRARPPRLPRPRPRPTCLPRP | 0.0548
115 | RRIRLRPPRLPRPRPRPYLDPRP | 0.0027
116 | RRIRRRPPRLPRPRPRPICQPRP | 0.133
117 | RRIRLRPPRLPRPRPRPKFLPRP | -0.173
118 | RRIRMRPPRLPRPRPRPFKLPRP | 0.102
119 | RRIRERPPRLPRPRPRPQQHPRP | -0.301
120 | RRIRGRPPRLPRPRPRPQQLPRP | 0.487
121 | RRIRSRPPRLPRPRPRPDQPPRP | 0.0272
122 | RRIRVRPPRLPRPRPRPYWAPRP | -0.0239
123 | RRIRGRPPRLPRPRPRPRFSPRP | 0.0932
124 | RRIRSRPPRLPRPRPRPDTGPRP | -0.00127
125 | RRIRYRPPRLPRPRPRPSSIPRP | -0.141

Row | Sequence | shrunken log2 fold change
126 | RRIRRRPPRLPRPRPRPDEFPRP | 0.138
127 | RRIRIRPPRLPRPRPRPEMAPRP | -0.061
128 | RRIRFRPPRLPRPRPRPKSTPRP | -0.3
129 | RRIRYRPPRLPRPRPRPHGYPRP | -0.0146
130 | RRIRSRPPRLPRPRPRPLWYPRP | -0.327
131 | RRIRKRPPRLPRPRPRPHCDPRP | 0.266
132 | RRIRSRPPRLPRPRPRPWSIPRP | 0.0338
133 | RRIRWRPPRLPRPRPRPHQAPRP | 0.257
134 | RRIRNRPPRLPRPRPRPQEKPRP | -0.198
135 | RRIRERPPRLPRPRPRPHTMPRP | -0.0656
136 | RRIRLRPPRLPRPRPRPVENPRP | -0.209
137 | RRIRWRPPRLPRPRPRPQAAPRP | 0.702
138 | RRIRRRPPRLPRPRPRPRTVPRP | 0.693
139 | RRIRMRPPRLPRPRPRPRGDPRP | 1.73
140 | RRIRGRPPRLPRPRPRPWDIPRP | 0.212
141 | RRIRPRPPRLPRPRPRPDSDPRP | 0.0303
142 | RRIRHRPPRLPRPRPRPYGGPRP | -0.91
143 | RRIRLRPPRLPRPRPRPYISPRP | -0.374
144 | RRIRRRPPRLPRPRPRPNWYPRP | -0.197
145 | RRIRNRPPRLPRPRPRPIITPRP | -0.14
146 | RRIRQRPPRLPRPRPRPRVNPRP | -0.0952
147 | RRIRLRPPRLPRPRPRPDGEPRP | -0.00819
148 | RRIRLRPPRLPRPRPRPCMIPRP | -0.21
149 | RRIRRRPPRLPRPRPRPYYAPRP | -0.561
150 | RRIRNRPPRLPRPRPRPINIPRP | 0.00587
